# Reference: PMC9499477, “The Inflammasome Activity of NLRP3 Is Independent of NEK7 in HEK293 Cells Co-Expressing ASC” (International Journal of Molecular Sciences, 2022)
# B1: NLRP3ΔPYD carrying the double mutation F788E/F813E (NLRP3ΔPYD-F788E/F813E), FLAG-tagged (domain or fragment, human, UniProt Q96P20 126-1036, looked up)
# chain: RISICKMKKDYRKKYRKYVRSRFQCIEDRNARLGESVSLNKRYTRLRLIKEHRSQQEREQELLAIGKTKTCESPVSPIKMELLFDPDDEHSEPVHTVVFQGAAGIGKTILARKMMLDWASGTLYQDRFDYLFYIHCREVSLVTQRSLGDLIMSCCPDPNPPIHKIVRKPSRILFLMDGFDELQGAFDEHIGPLCTDWQKAERGDILLSSLIRKKLLPEASLLITTRPVALEKLQHLLDHPRHVEILGFSEAKRKEYFFKYFSDEAQARAAFSLIQENEVLFTMCFIPLVCWIVCTGLKQQMESGKSLAQTSKTTTAVYVFFLSSLLQPRGGSQEHGLCAHLWGLCSLAADGIWNQKILFEESDLRNHGLQKADVSAFLRMNLFQKEVDCEKFYSFIHMTFQEFFAAMYYLLEEEKEGRTNVPGSRLKLPSRDVTVLLENYGKFEKGYLIFVVRFLFGLVNQERTSYLEKKLSCKISQQIRLELLKWIEVKAKAKKLQIQPSQLELFYCLYEMQEEDFVQRAMDYFPKIEINLSTRMDHMVSSFCIENCHRVESLSLGFLHNMPKEEEEEEKEGRHLDMVQCVLPSSSHAACSHGLVNSHLTSSFCRGLFSVLSTSQSLTELDLSDNSLGDPGMRVLCETLQHPGCNIRRLWLGRCGLSHECCEDISLVLSSNQKLVELDLSDNALGDEGIRLLCVGLKHLLCNLKKLWLVSCCLTSACCQDLASVLSTSHSLTRLYVGENALGDSGVAILCEKAKNPQCNLQKLGLVNSGLTSVCCSALSSVLSTNQNLTHLYLRGNTLGDKGIKLLCEGLLHPDCKLQVLELDNCNLTSHCCWDLSTLLTSSQSLRKLSLGNNDLGDLGVMMFCEVLKQQSCLLQNLGLSEMYFNYETKSALETLQEEKPELTVVFEPSW
# notes: NLRP3, human, N-terminally truncated, amino acids 126-1036 (lacks the pyrin domain), with F788E and F813E; Made by megaprimer mutagenesis of the NLRP3ΔPYD construct; also called the mutant
# Biological target: the molecule itself
# Experiment: SEC + other: dynamic light scattering; analytical SEC: 100 µL of 1 mg/mL FLAG-tagged NLRP3ΔPYD on Superose 6 Increase 10/300, 20 mM HEPES pH 7.5, 200 mM NaCl, 1 mM MgCl2, 2 mM DTT, size by calibration standards; DLS at 10 °C in the same buffer; self-association
protein,measurement,value
B1,stoichiometry N,~3
